The values below come from article doi:10.1101/485656 (bioRxiv, 2018).

For data set [1], the target named is FtsA (Escherichia coli) (UniProt P0ABH0). In words: MST.
Data set [2] has as its target FtsZ/FtsA co-filaments on a supported lipid bilayer (Escherichia coli) (UniProt P0ABH0). Kind of data set: TIRF colocalisation on supported lipid bilayers.
The target is the same in data set [3]. In words: single-molecule tracking by TIRF on supported lipid bilayers.
In data set [4] the target is FtsA (Escherichia coli) (UniProt P0ABH0). Kind of data set: TIRF colocalisation on supported lipid bilayers.
The data set “AUC” deals with the molecule itself. Kind of data set: AUC.

Molecule FtsN_(cyto-D5N)His (peptide) registered a Kd with FtsA (Escherichia coli) [1] of 0.16 µM. For the same molecule, the Pearson correlation coefficient of colocalisation with FtsZ in data set [2] is 0.75.
Regarding FtsQ_(cyto)His (peptide), the Pearson correlation coefficient of colocalisation with FtsZ in data set [2] was found to be 0.4.
For the molecule FtsN_(cyto)His (peptide), in data set [3], the average duration of confinement stood at 0.41 s; the frequency of confinement events, fold over the DDEE mutant is 3 fold; the weight of the population with short displacements, fold over FtsN (cyto-DDEE)His turned out to be 3 fold; the weighted contribution of the confined population, fold over FtsN (cyto-DDEE)His was found to be 2 fold. Besides, the Kd with FtsA (Escherichia coli) [1] came out at 0.324 µM. In data set [2], this molecule returned a Pearson correlation coefficient of colocalisation with FtsZ of 0.86 and a fold lower colocalization efficiency with GMPCPP against GTP of 1.5 fold. In the data set with FtsA (Escherichia coli) [4], this molecule showed a Pearson correlation coefficient of colocalisation with FtsA of 0.8.
In the data set with FtsA (Escherichia coli) [4], FtsZ (natural protein) displayed a Pearson correlation coefficient of FtsA/FtsZ colocalisation of 0.79.

B1: full-length FtsN with a C-terminal oligohistidine tag (natural protein, Escherichia coli, UniProt P29131 1-319, looked up)
chain: MAQRDYVRRSQPAPSRRKKSTSRKKQRNLPAVSPAMVAIAAAVLVTFIGGLYFITHHKKEESETLQSQKVTGNGLPPKPEERWRYIKELESRQPGVRAPTEPSAGGEVKTPEQLTPEQRQLLEQMQADMRQQPTQLVEVPWNEQTPEQRQQTLQRQRQAQQLAEQQRLAQQSRTTEQSWQQQTRTSQAAPVQAQPRQSKPASSQQPYQDLLQTPAHTTAQSKPQQAAPVARAADAPKPTAEKKDERRWMVQCGSFRGAEQAETVRAQLAFEGFDSKITTNNGWNRVVIGPVKGKENADSTLNRLKMAGHTNCIRLAAGG
With B1, the binding result in “AUC” is “binds”.

Broadly, the Kd is the constant that tells how readily two partners part at equilibrium. Low values mean a tighter complex, high ones a looser complex.
